Assay results: US20230322884A1, “IMMUNOSUPPRESSANT IN COMBINATION WITH HIGH AFFINITY IL-2 RECEPTOR AGONISTS AND RELATED DOSING” (Selecta Biosciences, Inc., priority 2022, published 2023)

Test system: Ovalbumin-specific OTII T cells
Experiment: Adoptive transfer of ovalbumin-specific OTII T cells, Foxp3 expression and total Treg (Example 5)
Type: in vivo, mice
Details: OTII T cells adoptively transferred prior to treatment
Description: However, expansion of antigen-specific Treg can be more desirable than expansion of total Treg. The ability of ImmTOR plus antigen combined with IL-2 mutein to induce and/or expand antigen-specific Treg was evaluated. Ovalbumin-specific OTII T cells were adoptively transferred into mice prior to treatment with ovalbumin and ImmTOR and/or IL-2 mutein.

B1: ovalbumin (protein, UniProt P01012 2-386, looked up)
Ovalbumin: GSIGAASMEFCFDVFKELKVHHANENIFYCPIAIMSALAMVYLGAKDSTRTQINKVVRFDKLPGFGDSIEAQCGTSVNVHSSLRDILNQITKPNDVYSFSLASRLYAEERYPILPEYLQCVKELYRGGLEPINFQTAADQARELINSWVESQTNGIIRNVLQPSSVDSQTAMVLVNAIVFKGLWEKAFKDEDTQAMPFRVTEQESKPVQMMYQIGLFRVASMASEKMKILELPFASGTMSMLVLLPDEVSGLEQLESIINFEKLTEWTSSNVMEERKIKVYLPRMKMEEKYNLTSVLMAMGITDVFSSSANLSGISSAESLKISQAVHAAHAEINEAGREVVGSAEAGVDAASVSEEFRADHPFLFCIKHIATNAVLFFGRCVSP
notes: model antigen administered to mice
- percentage of Foxp3+ OTII cells: ~6%
